According to the nanobody polyreactivity screen of Harvey et al. (2022):

Assay: yeast display, Sf9 membrane polyspecificity reagent, FACS + sequencing; frameworks hold sequencing errors
Procedure, shortened: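 Nanobodies came from a synthetic yeast display library in Saccharomyces cerevisiae BJ5465, induced with galactose for 36–48 hours and stained for 1 hour at 4 °C with 10% biotinylated, detergent-solubilized Sf9 membrane reagent. Cells were enriched on streptavidin microbeads and then FACS-sorted, with low and high (top ~1%) gates set on anti-HA fluorescence for expression and streptavidin fluorescence for reagent binding. Each polyreactivity label reflects the gate a clone came from. Genes were amplified by colony PCR, sequenced by MiSeq 2 × 250 and filtered by CDR length.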
With “QVQLVESGGGLVQAGGSLRLSCAASGFTFTRYAMGWYRQAPGKERELVAAITRSGSSTYYADSVKGRFTISRDNAKNTVYLQMNSLKQEDTAVYYCAARLHSPRYRYDYWGQGNQVTVSS” the “polyreactivity (PSR sort gate)” value was “high polyreactivity”.
With “QVQLVESGGGLVQAGGSLRLSCAASGFTFTRYAMGWYRQAPGTERELVAAISRRGGSTYYADSVKGRFTISRDNAKNTVYLQMNSLKPEDTAVYYCAKDAGSRTVREFGYWGQGTQVTVSS” the “polyreactivity (PSR sort gate)” value was “high polyreactivity”.
For “QVQLVESGGGLVQAGGSLRLSCAASGFTFTSNAMGWYRQAPGKERELVAAISRSGGRTYYADSVKGRFTISRDNAKNTVYLQLNSLKPEDTAVYYCNVRAEKRSYELYAYDYWGQGTQVTVSS”, the “polyreactivity (PSR sort gate)” value was “high polyreactivity”.
With “QVQLVESGGGLVQAGGSLRLSCAASGFTFTSYAMGWYIQAPGKERELVAAINRSGGSTTYADSVKGRFTISRDNAKNTVYLQMNSQKPEDTAVYYCAKAFRGHYWGQGTQVTVSS” the “polyreactivity (PSR sort gate)” value was “high polyreactivity”.
For “QVQLVESGGGLVQAGGSLRLSCAASGFTFTTYAMGWYRQAPGKERELVARISRRSGSTYYADSVKGRFTISRDNAKNTVYLQMNSLKPEDTAVYYCNADVDRSTTIFDYWGQGTQVTVSS”, the “polyreactivity (PSR sort gate)” value was “high polyreactivity”.
In the case of “QVQLVESGGGLVQAGGSLRLSCAASGFTFTWYAMGLYRQAPGKERELVAAISSGGGRTYYADSVKGRFTISRDNAKNTVYLQMNRLKPEDTAVYYCNAVAGGVYVDNGYDYWGQGTQVTVSS”, the “polyreactivity (PSR sort gate)” value is reported as “high polyreactivity”.
For “QVQLVESGGGLVQAGGSLRLSCAASGFTFTYNAMGWYRQAPGKERELVAGITLGSRTNYADSVKGRFTISRDNAKNTVYLQMNSLKPEDTAVYYCAVRYYGGYGYWGQGTQVTVSS”, the “polyreactivity (PSR sort gate)” value was “high polyreactivity”.
With “QVQLVESGGGLVQAGGSLRLSCAASGFTFTYYSMGWYRQAPGKERELVARINSCGNTNYADSVKGRFTISRDNAKNTVYLQMNSLKPEDTAVYSCARDACNRYDYWGQGTQVTVSS” the “polyreactivity (PSR sort gate)” value was “low polyreactivity”.
For “QVQLVESGGGLVQAGGSLRLSCAASGFTFVAYAMGWYRQAPGKERELVAAISRRGGTTYYADSVKGRFTISRDNEKNTVYLQMNSLKPEDTAVYYCNARSNFAFYRGNWAYDYWGQGTQVTVSS”, the “polyreactivity (PSR sort gate)” value was “high polyreactivity”.
In the case of “QVQLVESGGGLVQAGGSLRLSCAASGFTFVDYDMGWYRQAPGKERELVAAITYSGGSTSYADSVKGRFTISRDYAKNTVYLQMNSLKPEDTAVYYCNTEGFLSAVYAFGYWGQGTQVTVSS”, the “polyreactivity (PSR sort gate)” value is reported as “low polyreactivity”.
With “QVQLVESGGGLVQAGGSLRLSCAASGFTFVDYMGWYRQAPGKERELVAAIDNSGGGTYYADSVKGRFTISRDNAKNTVYLQMNSLKPEDTAVYYRYAYTFYIYEDVLYVQGDYYWGQGTQVTVSS” the “polyreactivity (PSR sort gate)” value was “low polyreactivity”.
With “QVQLVESGGGLVQAGGSLRLSCAASGFTFVGNAMGWYRQAPGKERELVATITSGGNTKYADSVKGRFTISRDNAKNTVYLQMNSLKPEDTAVYYCAAAKYNYRRFNYWGQGTQVTVSS” the “polyreactivity (PSR sort gate)” value was “low polyreactivity”.
For “QVQLVESGGGLVQAGGSLRLSCAASGFTFVGYAMGWYRQAPGKERELVAAITRRGGSTYYADSVKGRFTISRDNAKNTVYLQMNSLKPEDTGVYDCNKASYRISVPRYDYWGQGTQVTVSS”, the “polyreactivity (PSR sort gate)” value was “high polyreactivity”.
For “QVQLVESGGGLVQAGGSLRLSCAASGFTFVINDMGWYRQAPGKERELVADITSGGDTYYADSVKGRFTISRDNAKNTVYLQMNSLTPEDTAVYYCAADIYPDWIYLLYGYWGHGTQVTVSS”, the “polyreactivity (PSR sort gate)” value was “low polyreactivity”.
In the case of “QVQLVESGGGLVQAGGSLRLSCAASGFTFVNHAMGWYRQAPGKERELVAAISGGRTTNYADSVKGRFTISRDNAKNTVYLQMNSLKPEDTAVYYCAARRYFGLWYFWYDYWGQGTQVTVSS”, the “polyreactivity (PSR sort gate)” value is reported as “high polyreactivity”.
In the case of “QVQLVESGGGLVQAGGSLRLSCAASGFTFVNYVMGWYRQAPGKERELVAAISRSGGSTYYADSVKGRFTISRDNAKNTVYLQMNSLIPEDTAVYYCAARWFYRAGFNYWGQGTQVTVSS”, the “polyreactivity (PSR sort gate)” value is reported as “high polyreactivity”.
In the case of “QVQLVESGGGLVQAGGSLRLSCAASGFTFVPNTMGWYRQAPGKERELVARIRWRGGSTYYADSVKGRFTISRDNAKNTVYLQMNSLKPEDTAVYYCNAVRGYDARPYSEVYHGEKYYYWGQGTQVTVSS”, the “polyreactivity (PSR sort gate)” value is reported as “low polyreactivity”.
With “QVQLVESGGGLVQAGGSLRLSCAASGFTFVPYAMGWYRPAPGKEREFVAAITSSGTTNYADSVKGRFTISRDNAKNTVYLQMNSLKPEDTAVYYCAADPDSGQVPFDYWGQGTQVTVSS” the “polyreactivity (PSR sort gate)” value was “low polyreactivity”.
In the case of “QVQLVESGGGLVQAGGSLRLSCAASGFTFVQYAMGWYRPAPGKERELVATITNGGGSTYYADSVKGRFTISRDNAKNTVYLQMNSLKPEDPAVYYCNADSGGRGAPTSTYDYWGQGTQVTLSS”, the “polyreactivity (PSR sort gate)” value is reported as “low polyreactivity”.
For “QVQLVESGGGLVQAGGSLRLSCAASGFTFVRYAMGWYRQAPGKEREFVAAITWSGGGTYYADSVKGRFTISRDNAKNTVYLQMNSLKPEDTAVYYCAADRRAYGGGYWGQGTQVTVSS”, the “polyreactivity (PSR sort gate)” value was “high polyreactivity”.
In the case of “QVQLVESGGGLVQAGGSLRLSCAASGFTFVRYAMGWYRQAPGKERELVAAISSSGGSTYYADSVKGRFTISRDNAKNTVYLQMNSLKPEDTAVYYCAARPYARYSRNIDGYEYWGQGTQVTVSS”, the “polyreactivity (PSR sort gate)” value is reported as “high polyreactivity”.
With “QVQLVESGGGLVQAGGSLRLSCAASGFTFVRYAMGWYRQAPGKERELVAAISSSGSSTYYGDSVKGRFTISRDHEKNTVYLQMNSLKPEDTAVYYFNARAGRGEDYWGQGTQVTVSS” the “polyreactivity (PSR sort gate)” value was “low polyreactivity”.
In the case of “QVQLVESGGGLVQAGGSLRLSCAASGFTFVSYAMGGYRQAPGKERELVASISSGGSTYYADSVKGRFTISRDNAKNTVYLQMNSLKPEDTAVYYCAAYSRWGRWFTIYNYWGQGTQVTVSS”, the “polyreactivity (PSR sort gate)” value is reported as “high polyreactivity”.
With “QVQLVESGGGLVQAGGSLRLSCAASGFTFVSYAMGWYRQAPGKEREFVATISKRGGSTYYADSVKGRFTNSRDNAKNTVYLQMNSLKPEDTAVYYCAAARNVYRGRVYWGRYDYWGQGTQVTVSS” the “polyreactivity (PSR sort gate)” value was “high polyreactivity”.
For “QVQLVESGGGLVQAGGSLRLSCAASGFTFVYYAMGWYRPAPGKERDLVATISGNGGRTYYADSVKGRFTISRDNAKNTVYLQMNSLKPEDTAVYYCATDVGFGRKQRPHRPGYGYWGQGTQVTVSS”, the “polyreactivity (PSR sort gate)” value was “low polyreactivity”.
For “QVQLVESGGGLVQAGGSLRLSCAASGFTFVYYAMGWYRQAPGKERELVAAISRGGSTYYADSVKGRFTISRDNAKNTVYLQMNCLKPVDTAVYYCNAKKSGHYVSYPAYDYWGQGTQVTVSS”, the “polyreactivity (PSR sort gate)” value was “low polyreactivity”.
With “QVQLVESGGGLVQAGGSLRLSCAASGFTFVYYAMGWYRQAPGKERELVATITRSGDSTYYADSVKGRFTISRDNAKNTVYLQMNSLKPEDTAVYYCAAQPGTASYAGDGDSWGQGTQVTVSS” the “polyreactivity (PSR sort gate)” value was “low polyreactivity”.
With “QVQLVESGGGLVQAGGSLRLSCAASGFTFWANAMGWYRQAPGKERELVAAISWSGGSTTYADSVKGRFTISRDNAKNTVYLQMNSLKPEDTAVYYCATDYGHYVTYRLSDYWGQGTQVTVSS” the “polyreactivity (PSR sort gate)” value was “low polyreactivity”.
In the case of “QVQLVESGGGLVQAGGSLRLSCAASGFTFWAYAMGWYRQAPGKERELVAPISWSGGITYYADSVKGRFTISRDNAKNTVYLQMNSLKPEDTAVYYCAADPYVLVWVEDYDYWVQGTQVTVSS”, the “polyreactivity (PSR sort gate)” value is reported as “high polyreactivity”.
In the case of “QVQLVESGGGLVQAGGSLRLSCAASGFTFWGNAMGWYRQAPGKEREMVAAITDTGSTNYADSVKGRCTISRDNAKNTVYLQMNSLKPEDTAVYYCAKDKAYYDWGQTNGYWGQGTQVTVSS”, the “polyreactivity (PSR sort gate)” value is reported as “low polyreactivity”.
For “QVQLVESGGGLVQAGGSLRLSCAASGFTFWGYAMGWYRQAPGKERELVAGITRSGGNTYYADSVKGRFTISRDNAKNTVYLEMNSLKPEDSAVYYCAKRHFWNLTPYYFYRTIPDYYWGQGTQVTVSS”, the “polyreactivity (PSR sort gate)” value was “high polyreactivity”.
With “QVQLVESGGGLVQAGGSLRLSCAASGFTFWIYAMGWYRQAPGKERELVAVISRGGSTYYADSVKGRFTISRDNAKNTVYLQMNSMKPEDTAVYYCNAVGVRGYDYWGQGTQVTVSS” the “polyreactivity (PSR sort gate)” value was “high polyreactivity”.
With “QVQLVESGGGLVQAGGSLRLSCAASGFTFWKYTMGWYRQAPGKERELVAAITNSGTSTYYADSVKGRFTISRDNAKNTVYLQMNSLKPEDTAVYYCARDNEPDYYSYPYDYWGQGTQVTVSS” the “polyreactivity (PSR sort gate)” value was “low polyreactivity”.
For “QVQLVESGGGLVQAGGSLRLSCAASGFTFWLYAMGWYRQATGKEREFVAAISTSGGSTYADSVKGRFTISRDNAKNTVYLQMNSLKPEDTAVYYCNAGYLLYYDYHLFYWGQGTQVTVSS”, the “polyreactivity (PSR sort gate)” value was “low polyreactivity”.
In the case of “QVQLVESGGGLVQAGGSLRLSCAASGFTFWPYAMGWYRQAPGKERELVAAITWSGGRTYYADSVKGRFTISRDNAKNTVYLQMNSLKPEDTAVYYCNVDAYGYRPYRYYYWGQGTQVTVSS”, the “polyreactivity (PSR sort gate)” value is reported as “high polyreactivity”.
For “QVQLVESGGGLVQAGGSLRLSCAASGFTFWQYTMGWYRQAPGKERDFVASITSGVSTYYADSVKGSFTISRENAKNTVYLQMNSVKPEDTAVYYCAAYYYRRYLRGFFENWGQGTQVTVSS”, the “polyreactivity (PSR sort gate)” value was “high polyreactivity”.
In the case of “QVQLVESGGGLVQAGGSLRLSCAASGFTFWRNTMGWYRQEPGKERELVAGISGSGGSTYYADSVKGRFTSSRDNAKNTVYLQMNSLKPEDTAVYYCAKEPNVGTWRRWRYNYCGQGTQVTVSS”, the “polyreactivity (PSR sort gate)” value is reported as “high polyreactivity”.
For “QVQLVESGGGLVQAGGSLRLSCAASGFTFWRNVMGWYRQAPGKERELVAVISRGGSTNYADSVKGRFTISRDNAKNTVYLQMNRLKPEDTAVYYCPKYARGPSKVDYWGQGTQVTVSS”, the “polyreactivity (PSR sort gate)” value was “high polyreactivity”.
For “QVQLVESGGGLVQAGGSLRLSCAASGFTFWRYAKGWYRHAPGKERELVAAISSGGSTNYADSVKGRFTISRDNAKNTVYIQMNSLKPEDTAVYYCNARYYHKRSTRVIFPYDYWGQGTQVTVSS”, the “polyreactivity (PSR sort gate)” value was “high polyreactivity”.
For “QVQLVESGGGLVQAGGSLRLSCAASGFTFWRYAMGWYRQAPGKERELVAAISRSGGGTYYADSVKGRFTISRDNAKNTVYLQMNSLKPEDTAVYYCAAALYKGSGELDYWGQGTQVTVSS”, the “polyreactivity (PSR sort gate)” value was “high polyreactivity”.
In the case of “QVQLVESGGGLVQAGGSLRLSCAASGFTFWRYAMGWYRQAPGKERELVAAISWRGSSTYYADSVKGRFTISRDNAKNTVYLQMNSLKPEDSAVYYCAARYITFNGYGYGYWGQGTQVTVSS”, the “polyreactivity (PSR sort gate)” value is reported as “high polyreactivity”.
With “QVQLVESGGGLVQAGGSLRLSCAASGFTFWRYAMGWYRQAPGKERELVAAISYSGGSTYYADSVKGRFTISRDYAKNTVYLQMNSLKPEDTAVYYCNAETGYGVYRTKYGYWGQGTQVTVSS” the “polyreactivity (PSR sort gate)” value was “high polyreactivity”.
For “QVQLVESGGGLVQAGGSLRLSCAASGFTFWRYGMGWYRQAPGKERELVASITSGGGTNYADSVKGRFTISRDNAKNTVYFQMNSLKPEDTAVYYCAATYPYSWVYSGYYYWGQGTQVTVSS”, the “polyreactivity (PSR sort gate)” value was “low polyreactivity”.
